Test results: paper PMC8488606, “The citron homology domain as a scaffold for Rho1 signaling” (Proceedings of the National Academy of Sciences of the …, 2021)

How the values were obtained:
[1] = target: T1, Recombinant His6-Rom2 CNH (862-1194), citron homology domain of Aspergillus fumigatus Rom2 (Aspergillus fumigatus, UniProt Q4WUI2 862-1194, biotinylated using the EZLink NHS-Peg4-Biotin reagent (for BLI)); experiment: BLI; biotinylated AfRom2 CNH on super streptavidin (SSA) biosensors, apo AfRho1 (no nucleotide) in solution, Octet Htx; 25 mM Hepes, 150 mM NaCl, 0.5 mM TCEP pH 7.5; six-point series from 1 mM in threefold dilutions; conditions: both partners purified
T1 construct: Rom2 (guanine nucleotide exchange factor of Rho1), Aspergillus fumigatus, UniProt Q4WUI2, CNH domain construct residues 862-1194; Cloned into a noncleavable 6His version of pGEX6P1 with primers P23 and P24, then the C terminus was truncated with primers P19 and P20; The N-terminal end of the tag is read from the printed name 'His6-Rom2 CNH'; also called AfRom2 CNH; AfRom2CNH; source: E. coli BL21 …
T1 sequence (looked up): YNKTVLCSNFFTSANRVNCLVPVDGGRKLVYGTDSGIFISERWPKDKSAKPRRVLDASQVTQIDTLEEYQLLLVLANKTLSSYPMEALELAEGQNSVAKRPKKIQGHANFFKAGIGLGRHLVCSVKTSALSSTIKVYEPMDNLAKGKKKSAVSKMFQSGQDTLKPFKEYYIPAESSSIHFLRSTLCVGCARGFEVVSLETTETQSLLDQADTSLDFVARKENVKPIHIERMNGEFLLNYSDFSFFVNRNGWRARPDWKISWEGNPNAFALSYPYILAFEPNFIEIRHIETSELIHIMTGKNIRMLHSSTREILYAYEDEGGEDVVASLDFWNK

[2] = target: T1, Recombinant His6-Rom2 CNH (862-1194), …; experiment: BLI; biotinylated AfRom2 CNH on super streptavidin (SSA) biosensors, AfRho1 with GDP or GTPγS (saturating nucleotide) in solution, Octet Red 384; 25 mM Hepes, 150 mM NaCl, 0.5 mM TCEP pH 7.5; six-point series from 1 mM in threefold dilutions; conditions: both partners purified

B1: Recombinant AfRho1 (residues 1 to 181) with F25N mutation (enzyme)
chain: not shown
notes: Rho1 GTPase, Aspergillus fumigatus, residues 1 to 181, F25N introduced for protein stability; Expressed from pGEX6P1; GST removed with PreScission protease; Used without nucleotide, with GDP or with GTPγS in BLI; also called apo AfRho1; AfRho1-GDP; source: E. coli BL21 (non-DE3), purified (Glutathione-Sepharose, PreScission cleavage, Superdex 75)
Kd [1]: 80 µM
Kd [2]: 200 µM
